Measurements published in IntAct's records for PubMed 11587540.

B1: Emerin (Homo sapiens), P50402 (parent)
chain: MDNYADLSDTELTTLLRRYNIPHGPVVGSTRRLYEKKIFEYETQRRRLSPPSSSAASSYSFSDLNSTRGDADMYDLPKKEDALLYQSKGYNDDYYEESYFTTRTYGEPESAGPSRAVRQSVTSFPDADAFHHQVHDDDLLSSSEEECKDRERPMYGRDSAYQSITHYRPVSASRSSLDLSYYPTSSSTSFMSSSSSSSSWLTRRAIRPENRAPGAGLGQDRQVPLWGQLLLFLVFVIVLFFIYHFMQAEEGNPF

Variants of: B1
Conditions: with lmna_human LMNA

Row | Variant | effect of a mutation on the interaction
1 | Q133H | with no effect
